Source: US20110262748A1

Tests used:
[1] = biological target: human IgG antibody (manufactured by Lampire Biological Laboratories) (human); test: column breakthrough binding capacity of human IgG, protein A on crosslinked agarose, 500 cm/hr
[2] = biological target: human IgG antibody (manufactured by Lampire Biological Laboratories) (human); test: column breakthrough binding capacity of human IgG, protein A on crosslinked agarose, 150 cm/hr

binding capacity [1]: 12 mg/mL | binding capacity [2]: 25 mg/mL
Substance: protein A immobilized on crosslinked agarose (MabSelect Xtra, GE Healthcare Biosciences) (from UniProt P38507 37-327)
